The source of these data is the nanobody polyreactivity screen of Harvey et al. (2022).

This series in a line: yeast display, Sf9 membrane polyspecificity reagent, FACS + sequencing; frameworks hold sequencing errors. An outline of the steps:
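Nanobodies came from a synthetic yeast display library in Saccharomyces cerevisiae BJ5465, induced with galactose for 36–48 hours and stained for 1 hour at 4 °C with 10% biotinylated, detergent-solubilized Sf9 membrane reagent. Cells were enriched on streptavidin microbeads and then FACS-sorted, with low and high (top ~1%) gates set on anti-HA fluorescence for expression and streptavidin fluorescence for reagent binding. Each polyreactivity label reflects the gate a clone came from. Genes were amplified by colony PCR, sequenced by MiSeq 2 × 250 and filtered by CDR length.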
As for “QVQLVESGGGLVQAGGSLRLSCAASGSTFGFYTMGWYRQAPGKERELVAAISRGGGRTYYADSVKGRFTISRDNAKNTVYLQMNSLKPEDTAVYYCAARSTQGRFEYWGQGTQVTVSS”, the “polyreactivity (PSR sort gate)” value is listed as “high polyreactivity”. For the sequence “QVQLVESGGGLVQAGGSLRLSCAASGSTFGGNAMGWYRQAPGKERELVAAIDSGGSTYADSVKGRFTISRDNAKNTVYFQMNSLKPEDTAVYYCAAVWEFVHYWRFDYWGQGTQVTVSS”, the “polyreactivity (PSR sort gate)” value was “low polyreactivity”. Next, “QVQLVESGGGLVQAGGSLRLSCAASGSTFGGNAMGWYRQAPGKERELVAAITIGGRTNYADSVKGRFTISRDYAKNTVYLQMNSLKPEDTAVYYCAKDRDQWQDYWGQGTQVTVSS”: “low polyreactivity”; “QVQLVESGGGLVQAGGSLRLSCAASGSTFGGNAMGWYRQAPGKERELVASISSSGGRTYYADSVKGRFTISRDNAKNTVYLQMNSLKPEDTAVYYCAAKAWYPRVGFLRGGYWGQGTQVTVSS”: “high polyreactivity”. Take “QVQLVESGGGLVQAGGSLRLSCAASGSTFGGYAMGWYRPAPGKERELVAAISGGGRTYYADSVKGRFTISRDNAKNTVYLQMNSLKPADTAVYYCNAGYWFGYRLFTGYYWGQGTQVTVSS”: the “polyreactivity (PSR sort gate)” value was “low polyreactivity”. For “QVQLVESGGGLVQAGGSLRLSCAASGSTFGGYAMGWYRQAPGKERELVAAISSSGGITYYADSVKGRFTISRDNAKNTVYLQMNSLKPEDTAVYYCAAPLGGGARWGRWWLYDSWGQGTQVTVSS”, the “polyreactivity (PSR sort gate)” value is on record as “low polyreactivity”. With “QVQLVESGGGLVQAGGSLRLSCAASGSTFGGYAMGWYRQAPGKERELVAAITSRGGSTYYADSVKGRFTISRDNAKNTVYLQMNSLKPEDTAVYYCATGLPKRDRRARIRYEYWGQGTQVTVSS”, the “polyreactivity (PSR sort gate)” value is recorded as “low polyreactivity”.

As for “QVQLVESGGGLVQAGGSLRLSCAASGSTFGGYSMGWYRQAPGKERELVAAITYSGGSTYYADSVKGRFTISGDIAQNTVYLQMKSLKPEDTAFYYCNADDDDALPWWWPYVLDVDYWGQGTQVTVSS”, the “polyreactivity (PSR sort gate)” value is “low polyreactivity”. For the sequence “QVQLVESGGGLVQAGGSLRLSCAASGSTFGGYVMGWYRQAPGKERELVAAISGNGASTTYADSVKGRFTISRDNAKSTFYLQLNSVKPEDTAVYYCGAMYRKAHSDYDYWGQGTQVTVSS”, the “polyreactivity (PSR sort gate)” value was “low polyreactivity”. On to “QVQLVESGGGLVQAGGSLRLSCAASGSTFGHNVMGWYRQSPGKERELVAAISTSGGRTYYADSVKGRFTISRDNAKNTVYLQMNSLKPEDTAVYYCAARVYSTSVVAYYYWGQGTQVTVSS”, for which the “polyreactivity (PSR sort gate)” value is “high polyreactivity”. For “QVQLVESGGGLVQAGGSLRLSCAASGSTFGINAMGGYRPAPGKERELVAAITASGGRTYYADSVKGRFTISRDNAKNTVYLQMNSLKPEDTAVYYCAAGFYPYYYWGQGTQVTVSS”, the “polyreactivity (PSR sort gate)” value is listed as “low polyreactivity”. Regarding “QVQLVESGGGLVQAGGSLRLSCAASGSTFGINAMGWYRQAPGKERELVASITRRGGSTYYADSVKGRFTISRDNAKNTVYLQMNSLKTEDTAVYYFNKTYRYGTPLYDYWGQGTQVTVSS”, the “polyreactivity (PSR sort gate)” value was “high polyreactivity”.

For “QVQLVESGGGLVQAGGSLRLSCAASGSTFGINAMGWYRQSPGKERELVAAISSRGGRTYYADSVKGRFTISRDNAKNTVYLQMNSLKPEDTAVYYCNAVYGRVKGRGVGFKPQYDSWGQGTQVTVSS”, the “polyreactivity (PSR sort gate)” value is recorded as “high polyreactivity”. In the case of “QVQLVESGGGLVQAGGSLRLSCAASGSTFGIYDMGWYRQAPGKERELVAAITSGGDTNYADSVKGRFTISRDNAKNTVYFQKNSLKPEDTAVYYCNARDGGQGNYSARYDYWGQGTQVTVSS”, the “polyreactivity (PSR sort gate)” value is reported as “low polyreactivity”.

For the sequence “QVQLVESGGGLVQAGGSLRLSCAASGSTFGKNAMGWYRQAPGKERELVAAISTSGTRTFFADSVKGRFTISRDNAKNTVYLQMNSLKPEDTAFYYWNAGRSSRAYYYWGQGTQVTVSS”, the “polyreactivity (PSR sort gate)” value is “high polyreactivity”. With “QVQLVESGGGLVQAGGSLRLSCAASGSTFGKNAMGWYRQAPGKERELVAAITRGSGSTYYADSVKGRFTISRDNAKNTVYLQMNSLKPEDTAVYYCAARRYRLSTPEFNYWGQGTQVTVSS”, the “polyreactivity (PSR sort gate)” value is recorded as “high polyreactivity”.

Take “QVQLVESGGGLVQAGGSLRLSCAASGSTFGKYAMGWYRQAPGKEREFVAGISWSADSTYYADSVKGRFTISRDNAKNTVYLQMNSLKPEDTAFYYCATDGSSDEFRPEYDYWGQGTQVTVSS”: the “polyreactivity (PSR sort gate)” value was “low polyreactivity”. Take “QVQLVESGGGLVQAGGSLRLSCAASGSTFGKYVMGWYRQAPGKERELVAAISRSGGSTYYADYVKGRFTISRDNAMNTVYLQMNSLKPEDTAVYYCNAVVYFVGDFDYWGQGTQVSVSS”: the “polyreactivity (PSR sort gate)” value is given as “high polyreactivity”. Consider “QVQLVESGGGLVQAGGSLRLSCAASGSTFGLYAMGWYRQAPGKERELVAAISGGSGRTYYADSVKGRFTISRDNAKNTVYLQMNSLKPEDTAVYYCAAVPVYRHEYDYWGQGTQVTVSS”, for which the “polyreactivity (PSR sort gate)” value is “low polyreactivity”. Regarding “QVQLVESGGGLVQAGGSLRLSCAASGSTFGLYAMGWYRQAPGKERELVAAISSRGSRTYYADSVKGRFTISRDNAKNTVYLQMNSLKPEDTAVYYCNALYASSVRHKVTYDYWGQGTQVTVSS”, the “polyreactivity (PSR sort gate)” value is on record as “high polyreactivity”. With “QVQLVESGGGLVQAGGSLRLSCAASGSTFGLYAMGWYRQAPGKERELVADITWSGGSTYYADSVKGRFTISRDNAKNTVYLQMNSMKPEDTAVYYCAARYAWVYYDFDYCGQGTQVTVSS”, the “polyreactivity (PSR sort gate)” value is “low polyreactivity”. Regarding “QVQLVESGGGLVQAGGSLRLSCAASGSTFGLYAMGWYRQAPVKEREFVAAISWRTGSTYYADSVKGRFTISRDTAKNTVYLQMNSLKPEDTAVYYCNAPYFYSRYSPDDYWGQGTQVTVSS”, the “polyreactivity (PSR sort gate)” value is reported as “high polyreactivity”.

“QVQLVESGGGLVQAGGSLRLSCAASGSTFGMNAMGWYRQAPGKERELVAAIDSSGGTTYYADSVKGRFTISRDHAKNTVYLQMNSRKPEDTAVYYCAADDNYYTFGYWGQGSQVTVSS”: the “polyreactivity (PSR sort gate)” value was “high polyreactivity”. The result for “QVQLVESGGGLVQAGGSLRLSCAASGSTFGNAMGWYSQAPGKERELVAAISGSGSDTYYADSVKGRFTISRDNAKNPVYLQMNSLKPEDTAVYSWATETHRLDKGTDYGYDYWGQGTQVTVSS” reads “low polyreactivity”; that for “QVQLVESGGGLVQAGGSLRLSCAASGSTFGPNAMGWYRKAPGKERELVAALSKRGGRTDYADSVKGRFTISRDNAKNTVYLQMNSLKPEDTAVYYCNARDGSYYQGDYWGQGNQVTVSS”, “high polyreactivity”; that for “QVQLVESGGGLVQAGGSLRLSCAASGSTFGPNAMGWYRQAPGKERELVAAIRSNGGRTYYADSVKGRFTISRDNAKNTVYLQMNSLKPEDTAVYYCAAPHYPYDTPYGYWGQGTQVTVSS”, “low polyreactivity”. As to “QVQLVESGGGLVQAGGSLRLSCAASGSTFGPNAMGWYRQAPGKERELVAAIRSQGGRTYYAYSVKGRFTISRDNAKNSVYLQMNSLIPEDTAVYYCGDPHYPYDTPYGYWGQGTQVTVSS”, the “polyreactivity (PSR sort gate)” value is on record as “low polyreactivity”.

For the sequence “QVQLVESGGGLVQAGGSLRLSCAASGSTFGPNTMGWYRQAPRKERELVAAITSTGSTYYADSVKGRFTISRDNAKNTVYLQMNSLKPEDTAVYYCAARRYYGVYYAFYYWGQGTQVTVSS”, the “polyreactivity (PSR sort gate)” value is “high polyreactivity”. Next, “QVQLVESGGGLVQAGGSLRLSCAASGSTFGPYAMGWYRQAPGKERELVAAITLSGGSTYYADSVKGRFTISRDYAKNTVYLQLNRLKPEYTAVYYCAAEYDRVDEDDYWGQGTQVTVSS”: “high polyreactivity”. As to “QVQLVESGGGLVQAGGSLRLSCAASGSTFGPYAMGWYRQAPGKEREMVAAISKTGGRTYYADSVKGRFTISRDNAKNTVYLQMHSLKPEDTAVYYCAADVGTAQSTYGYWGQGTQVTVSS”, the “polyreactivity (PSR sort gate)” value is given as “high polyreactivity”. Consider “QVQLVESGGGLVQAGGSLRLSCAASGSTFGPYAMGWYRQAPGKEVELVAAITASVGSTYYAESVKGRFTISRDNAKNTVYLQMNSLKPEDTAVYYCNADLSYFFGPYWGLYGLDYWGQGTQVTVSS”, for which the “polyreactivity (PSR sort gate)” value was “low polyreactivity”. As to “QVQLVESGGGLVQAGGSLRLSCAASGSTFGPYTMGWYRQAPGKERELVAAISYSGASTYYADSVKGRFTISRDNAMNTVYLQMNSLKPEDTAVYYCNTVYRYTRARYPYDYWGQGTQVTVSS”, the “polyreactivity (PSR sort gate)” value is on record as “high polyreactivity”. For “QVQLVESGGGLVQAGGSLRLSCAASGSTFGPYVMGWYRQAPGKERELVAAISQSGGSTYYADSVKGRFTISRDNAKNTVYLQMNSLKPEDTAVYYCAAQTPYGMYYWGQGTQVTVSS”, the “polyreactivity (PSR sort gate)” value was “low polyreactivity”. The result for “QVQLVESGGGLVQAGGSLRLSCAASGSTFGQYALGWYRQAPGKERELVATISSGSTYYADSVKGRFTISRDNAKNTVYLQMNSLKPEDTAVYYCAARRIHTTSSRGYYWGQGSQVTVSS” reads “high polyreactivity”; that for “QVQLVESGGGLVQAGGSLRLSCAASGSTFGQYAMGWYRQAPGKERELVAAISRNGGRTYYADSVKGRFTISRDNAKNTVYLQMNSLKPEDTAVYYCAAGGFHYVYYRGMYYWGQGTQVTVSS”, “high polyreactivity”. “QVQLVESGGGLVQAGGSLRLSCAASGSTFGRNAMGWYRQAPGKERELVAAISTSGSRTYYADSVKGRFTISRDNAKNTVYLQMNSLKPEDTAVYYCNAYGVSRGSYGTRGYWGQGTQVTVSS”: the “polyreactivity (PSR sort gate)” value is recorded as “high polyreactivity”.

As for “QVQLVESGGGLVQAGGSLRLSCAASGSTFGRNAMGWYRQSPGKERELVAAISSRGGGTYYADSVKGRFTISRDNAKNSVYLQMNSLKPEDTAVYYCAADYVYGYYPKYTYKPSGYWGQGTQVTVTS”, the “polyreactivity (PSR sort gate)” value is given as “high polyreactivity”. The result for “QVQLVESGGGLVQAGGSLRLSCAASGSTFGRYAMGWYRQAPGKERELVAAISRGGSTYYADSVKGRFTISRDNAKNTVYLQMNSLKPEDTAVYYCNKGDSKEYDVYYWGQGTQVTVSS” reads “low polyreactivity”; that for “QVQLVESGGGLVQAGGSLRLSCAASGSTFGRYAMGWYRQAPGKERELVAAISRGTTTNYADSVKGRFTFSRDIAKNTVYLQMNSLKPVDTAVYYCAAESPSVFDGYAQLYIILEDYWGQGTQVTVSS”, “low polyreactivity”; that for “QVQLVESGGGLVQAGGSLRLSCAASGSTFGRYAMGWYRQAPGKERELVAGITSSGRTNYADSVKGRFTISRDNAKNTVYLQMNSLKPEDTAVYYCAKRWLRYGYRYDYWGQGTQVTVSS”, “high polyreactivity”.
